The record followed here is US20160115500A1 (University of California, published 2016).

Data set [1] addresses GAL4 activation domain fusion (ACT) to HAB1 (UniProt Q9CAJ0). Kind of data set: yeast two-hybrid, X-gal; lowest mandipropamid concentration giving signal.
A further data set has as its target T1, GST-ABI2 (UniProt O04719 1-423).
T1 sequence (looked up): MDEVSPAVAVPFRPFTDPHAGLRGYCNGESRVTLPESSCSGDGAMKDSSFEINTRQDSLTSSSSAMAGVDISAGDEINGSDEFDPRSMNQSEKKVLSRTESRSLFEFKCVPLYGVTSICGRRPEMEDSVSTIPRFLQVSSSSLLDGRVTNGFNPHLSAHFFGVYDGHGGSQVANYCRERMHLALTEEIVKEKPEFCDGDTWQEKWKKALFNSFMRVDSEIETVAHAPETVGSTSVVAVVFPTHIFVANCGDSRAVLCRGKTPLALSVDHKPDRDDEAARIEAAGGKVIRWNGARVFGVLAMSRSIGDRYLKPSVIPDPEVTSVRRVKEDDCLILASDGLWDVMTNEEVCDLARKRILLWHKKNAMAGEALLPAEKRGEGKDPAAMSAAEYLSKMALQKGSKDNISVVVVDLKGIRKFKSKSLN
Kind of data set: cell-based or functional assay.

For another data set, the target named is T2, GST-ABI1 (UniProt P49597 1-434).
T2 sequence (looked up): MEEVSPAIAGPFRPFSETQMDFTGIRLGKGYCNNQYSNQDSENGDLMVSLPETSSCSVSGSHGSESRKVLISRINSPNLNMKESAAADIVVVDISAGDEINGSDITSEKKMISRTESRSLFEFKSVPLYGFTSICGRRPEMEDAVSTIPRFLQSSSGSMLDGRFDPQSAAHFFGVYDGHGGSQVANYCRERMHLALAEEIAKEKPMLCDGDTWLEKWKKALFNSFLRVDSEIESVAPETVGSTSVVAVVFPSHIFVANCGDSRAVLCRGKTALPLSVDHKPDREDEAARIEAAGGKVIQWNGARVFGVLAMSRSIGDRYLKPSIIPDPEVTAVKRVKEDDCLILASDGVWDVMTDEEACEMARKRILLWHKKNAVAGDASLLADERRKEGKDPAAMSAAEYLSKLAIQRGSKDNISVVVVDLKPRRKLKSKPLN
In words: cell-based or functional assay.

In another data set the target is T3, GST-HAB1 (UniProt Q9CAJ0 23-511).
T3 sequence (looked up): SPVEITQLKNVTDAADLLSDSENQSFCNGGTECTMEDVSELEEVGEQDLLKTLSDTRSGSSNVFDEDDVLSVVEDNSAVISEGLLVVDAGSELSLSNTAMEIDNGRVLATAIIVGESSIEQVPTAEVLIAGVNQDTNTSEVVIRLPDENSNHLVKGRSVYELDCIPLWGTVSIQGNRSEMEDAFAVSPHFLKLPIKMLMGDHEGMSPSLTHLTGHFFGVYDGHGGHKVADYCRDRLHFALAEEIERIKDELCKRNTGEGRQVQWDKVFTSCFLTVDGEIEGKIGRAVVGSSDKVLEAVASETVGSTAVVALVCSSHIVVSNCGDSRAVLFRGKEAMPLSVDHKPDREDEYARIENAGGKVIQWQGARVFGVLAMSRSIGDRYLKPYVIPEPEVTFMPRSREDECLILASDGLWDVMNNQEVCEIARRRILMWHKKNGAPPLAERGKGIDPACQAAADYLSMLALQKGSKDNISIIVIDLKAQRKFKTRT
In words: cell-based or functional assay.

Data set [2] has as its target T4, 6×-His tagged PYR1^K59R,F108A,S122G.
T4 chain: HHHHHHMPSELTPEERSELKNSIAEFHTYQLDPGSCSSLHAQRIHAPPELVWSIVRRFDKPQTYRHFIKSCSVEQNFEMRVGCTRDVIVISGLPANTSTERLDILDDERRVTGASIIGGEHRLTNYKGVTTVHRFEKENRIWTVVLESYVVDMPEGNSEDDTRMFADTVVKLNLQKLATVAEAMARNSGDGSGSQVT

The target of the next data set is T5, 6×-His-PYR1^MANDI.
T5 chain: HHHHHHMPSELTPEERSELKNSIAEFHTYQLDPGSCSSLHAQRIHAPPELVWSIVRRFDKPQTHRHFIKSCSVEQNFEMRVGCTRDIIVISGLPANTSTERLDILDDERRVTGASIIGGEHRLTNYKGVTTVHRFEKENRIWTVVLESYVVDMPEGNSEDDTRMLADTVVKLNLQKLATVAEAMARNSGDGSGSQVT

Data set [3] has as its target T6, GAL4 activation domain fusion (ACT) to HAB1 (UniProt Q9CAJ0 23-511, limits assumed).
T6 construct: pACT-HAB1 fusion in yeast reporter strains; also called pACT-HAB1
T6 sequence (looked up): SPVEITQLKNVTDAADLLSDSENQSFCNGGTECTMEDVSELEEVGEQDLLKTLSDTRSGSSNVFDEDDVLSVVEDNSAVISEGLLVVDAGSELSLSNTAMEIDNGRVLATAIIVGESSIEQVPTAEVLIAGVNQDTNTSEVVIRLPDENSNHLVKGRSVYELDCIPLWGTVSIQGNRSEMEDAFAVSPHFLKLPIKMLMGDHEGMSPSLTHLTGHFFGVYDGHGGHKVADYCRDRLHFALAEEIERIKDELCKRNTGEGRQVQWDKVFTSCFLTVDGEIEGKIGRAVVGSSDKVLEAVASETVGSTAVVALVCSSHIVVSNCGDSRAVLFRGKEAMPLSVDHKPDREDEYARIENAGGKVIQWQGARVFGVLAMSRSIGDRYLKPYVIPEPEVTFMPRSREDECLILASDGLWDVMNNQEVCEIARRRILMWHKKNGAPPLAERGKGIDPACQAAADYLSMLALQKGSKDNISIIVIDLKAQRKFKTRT
Kind of data set: yeast two-hybrid, X-gal; lowest benzothiadiazole concentration giving signal.

In data set [4] the target is T6, GAL4 activation domain fusion (ACT) to …. Kind of data set: yeast two-hybrid, X-gal; lowest mandipropamid concentration giving signal.
Data set [5] has the same target. Kind of data set: yeast two-hybrid, X-gal; lowest benoxacor concentration giving signal. On the procedure:
The set of 475 mutant plasmids were individually transformed into the Y190 yeast two hybrid reporter strain co-transformed with pACT-HAB1, as previously described (Park et al., 2009). The yeast strains generated were arrayed into 96-well plates yielding what we refer to as the “pocket library”. The pocket library strains were spotted onto agar plates containing selective synthetic dextrose (minus Leu & Trp) medium that was supplemented with a single test compound at 100 μM. The pocket library strains were separately tested for responsiveness to the following compounds: dichlobenil, benzothiadiazole, mandipropamid, fludioxonil, and benoxacor. After incubating test plates at 30° C. for two days, colonies were chloroform lysed and stained to reveal β-galactosidase expression levels, using previously described methods (Park et al., 2009). Mutants displaying responsiveness to the test compound, if present, were identified by virtue of X-gal staining and then subjected to subsequent optimization efforts. Using this approach we identified mutations that conferred detectable sensitivity to the compounds tested (see entries labeled “Pocket Library Screens” in Table 1).

Data set [6] shares this target. Kind of data set: yeast two-hybrid, X-gal; lowest fludioxonil concentration giving signal.
Data set [7] has the same target. In words: yeast two-hybrid, X-gal; lowest dichlobenil concentration giving signal.

The molecule “PYR1^Y58H,K59R,V81I,F108A,F159L (from UniProt P04386 1-147) (receptor)” displayed a Threshold in [1] of 0.01 µM.

B1: 6×-His-PYR1^MANDI (receptor)
chain: HHHHHHMPSELTPEERSELKNSIAEFHTYQLDPGSCSSLHAQRIHAPPELVWSIVRRFDKPQTHRHFIKSCSVEQNFEMRVGCTRDIIVISGLPANTSTERLDILDDERRVTGASIIGGEHRLTNYKGVTTVHRFEKENRIWTVVLESYVVDMPEGNSEDDTRMLADTVVKLNLQKLATVAEAMARNSGDGSGSQVT
B1: the results for the “IC50 of mandipropamid mediated inhibition of PP2C activity (4-methylumbelliferyl-phosphate substrate)” value with GST-ABI2, with GST-ABI1 and in the data set with GST-HAB1 were 75.5 nM, 26.8 nM and 32.2 nM, respectively.

B2: GST-ABI2 (protein)
chain: MDEVSPAVAVPFRPFTDPHAGLRGYCNGESRVTLPESSCSGDGAMKDSSFEINTRQDSLTSSSSAMAGVDISAGDEINGSDEFDPRSMNQSEKKVLSRTESRSLFEFKCVPLYGVTSICGRRPEMEDSVSTIPRFLQVSSSSLLDGRVTNGFNPHLSAHFFGVYDGHGGSQVANYCRERMHLALTEEIVKEKPEFCDGDTWQEKWKKALFNSFMRVDSEIETVAHAPETVGSTSVVAVVFPTHIFVANCGDSRAVLCRGKTPLALSVDHKPDRDDEAARIEAAGGKVIRWNGARVFGVLAMSRSIGDRYLKPSVIPDPEVTSVRRVKEDDCLILASDGLWDVMTNEEVCDLARKRILLWHKKNAMAGEALLPAEKRGEGKDPAAMSAAEYLSKMALQKGSKDNISVVVVDLKGIRKFKSKSLN
Turning to B2, the “PP2C activity (pNPP substrate), 600 nM PP2C and 1200 nM receptor” value is “saturable inhibition of HAB1 and ABI2 PP2C activity by mandipropamid in the presence of PYR1^MANDI (FIG. 1A, bottom lines) and PYR1^K59R,F108A,S122G” in data set [2]; “saturable inhibition of HAB1 and ABI2 PP2C activity by mandipropamid in the presence of PYR1^MANDI” with 6×-His-PYR1^MANDI.

B3: GST-HAB1 (protein)
chain: SPVEITQLKNVTDAADLLSDSENQSFCNGGTECTMEDVSELEEVGEQDLLKTLSDTRSGSSNVFDEDDVLSVVEDNSAVISEGLLVVDAGSELSLSNTAMEIDNGRVLATAIIVGESSIEQVPTAEVLIAGVNQDTNTSEVVIRLPDENSNHLVKGRSVYELDCIPLWGTVSIQGNRSEMEDAFAVSPHFLKLPIKMLMGDHEGMSPSLTHLTGHFFGVYDGHGGHKVADYCRDRLHFALAEEIERIKDELCKRNTGEGRQVQWDKVFTSCFLTVDGEIEGKIGRAVVGSSDKVLEAVASETVGSTAVVALVCSSHIVVSNCGDSRAVLFRGKEAMPLSVDHKPDREDEYARIENAGGKVIQWQGARVFGVLAMSRSIGDRYLKPYVIPEPEVTFMPRSREDECLILASDGLWDVMNNQEVCEIARRRILMWHKKNGAPPLAERGKGIDPACQAAADYLSMLALQKGSKDNISIIVIDLKAQRKFKTRT
B3: the “PP2C activity (pNPP substrate), 600 nM PP2C and 1200 nM receptor” value in data set [2] is “saturable inhibition of HAB1 and ABI2 PP2C activity by mandipropamid in the presence of PYR1^MANDI (FIG. 1A, bottom lines) and PYR1^K59R,F108A,S122G”; in the data set with 6×-His-PYR1^MANDI it was “saturable inhibition of HAB1 and ABI2 PP2C activity by mandipropamid in the presence of PYR1^MANDI”.

B4: PYR1^K59R,F159V (receptor, not shown: small tags and cut ends)
chain: MPSELTPEERSELKNSIAEFHTYQLDPGSCSSLHAQRIHAPPELVWSIVRRFDKPQTYRHFIKSCSVEQNFEMRVGCTRDVIVISGLPANTSTERLDILDDERRVTGFSIIGGEHRLTNYKSVTTVHRFEKENRIWTVVLESYVVDMPEGNSEDDTRMVADTVVKLNLQKLATVAEAMARNSGDGSGSQVT
notes: pBD-PYR1 fusion in yeast
For the molecule B4, the Threshold in [3], in [4], in data set [5], in data set [6] and in data set [7] was 100 µM throughout.

B5: PYR1^K59R,M158V (receptor, not shown: small tags and cut ends)
chain: MPSELTPEERSELKNSIAEFHTYQLDPGSCSSLHAQRIHAPPELVWSIVRRFDKPQTYRHFIKSCSVEQNFEMRVGCTRDVIVISGLPANTSTERLDILDDERRVTGFSIIGGEHRLTNYKSVTTVHRFEKENRIWTVVLESYVVDMPEGNSEDDTRVFADTVVKLNLQKLATVAEAMARNSGDGSGSQVT
notes: pBD-PYR1 fusion in yeast
For the molecule B5, the Threshold in data set [3], in [5], in [6] and in data set [7] was 100 µM throughout.

B6: PYR1^K59R,T162W (receptor, not shown: small tags and cut ends)
chain: MPSELTPEERSELKNSIAEFHTYQLDPGSCSSLHAQRIHAPPELVWSIVRRFDKPQTYRHFIKSCSVEQNFEMRVGCTRDVIVISGLPANTSTERLDILDDERRVTGFSIIGGEHRLTNYKSVTTVHRFEKENRIWTVVLESYVVDMPEGNSEDDTRMFADWVVKLNLQKLATVAEAMARNSGDGSGSQVT
notes: pBD-PYR1 fusion in yeast
As for B6, the Threshold in [3] amounted to 100 µM; in data set [5] it was 50 µM; in data set [6], 100 µM; in data set [7], 100 µM.
